B1: coiled-coil domain of Num1 (residues 97-294) (domain or fragment, Saccharomyces cerevisiae, UniProt Q00402 97-294, looked up)
chain: MNFTLELSENLLVECRKLQSSNEAKNEQIKSLKQIKESLSDKIEELTNQKKSFMKELDSTKDLNWDLESKLTNLSMECRQLKELKKKTEKSWNDEKESLKLLKTDLEILTLTKNGMENDLSSQKLHYDKEISELKERILDLNNENDRLLISVSDLTSEINSLQSNRTERIKIQKQLDDAKASISSLKRKVQKKYYQKQ
B2: Num1 (97-195), N-terminal half of Num1CC (domain or fragment, Saccharomyces cerevisiae, UniProt Q00402 97-195, looked up)
chain: MNFTLELSENLLVECRKLQSSNEAKNEQIKSLKQIKESLSDKIEELTNQKKSFMKELDSTKDLNWDLESKLTNLSMECRQLKELKKKTEKSWNDEKESL
B3: Num1 (97-175) (domain or fragment, Saccharomyces cerevisiae, UniProt Q00402 97-175, looked up)
chain: MNFTLELSENLLVECRKLQSSNEAKNEQIKSLKQIKESLSDKIEELTNQKKSFMKELDSTKDLNWDLESKLTNLSMECR
B4: full-length Mdm36 (residues 1-579) (natural protein, Saccharomyces cerevisiae, UniProt Q06820 1-579, looked up)
chain: MDENGTVKPGYELKGLNSGNSRSNMDKDPIVSKFHRAGLNDSADEEDTDINGNRNTSWITSMISEEKRKVEGKSMLNDEEDLHLSKATLNKCDALVKILADIIKLEFVIHQSWYIRSLHKSVLIQFEVETSGGNKNSAGDSGDDDDDNHNGNLDDSFYKDLSLKCIKKCEKSSLALESLSRDIDQIRDFIMSNTIEDNRVDRLLQNSMTLLLECWIYSMKRLRRLRMKIAGIFVRSKLLLIDHELVTIWHFLQEQNEHETVNNENELKLAETIKSYRAFIKIFIQQLEDSESGSPSSSLFEECLHVFLDIESMYNSLNLNWLLNENKALQERLLSPSSTSENDHTNNLPVIDETKEIEDISSFVNSIVDASMLTHDLTPINSSDSDNLSNGEIDRLDGRRLSSSTSDMSLMMQRTSLQKQLPSLLTAFNNARRLEQELQNACKVNDNKHSTKDTDSNIRRNEHAMSSSVSSIISQNSTLASPSPPMSSSFISTAPSQSSSRMSTLPLSPSSSLLESQSQTLKNNMSQWLNQSRSGLNGTKLIPTNHIGFHSNVLNTLYGIGGGPVSKSYKSNQPSSQNT

Tests used:
SEC-MALS = biological target: the molecule itself; assay: SEC-MALS
[1] = biological target: B4; assay: ITC
[2] = biological target: B4; assay: SEC

Binder	stoichiometry N (SEC-MALS)	Kd [1] [nM]	stoichiometry N [1]	binding result [2]
B1	2	121	1 Num1CC per Mdm36 (1:1)	
B2				binds
B3				binds
B4	2			

Source: PMC8112169 (Molecules and Cells, 2021)
